# Results from US20110171242A1 (published 2011).
# Residue numbers refer to the chain shown, from its start. Names and notes keep the numbering of the source.
# T1: TNFR1 on normal human dermal fibroblasts (human, UniProt P19438 30-455)
# T1 sequence (looked up): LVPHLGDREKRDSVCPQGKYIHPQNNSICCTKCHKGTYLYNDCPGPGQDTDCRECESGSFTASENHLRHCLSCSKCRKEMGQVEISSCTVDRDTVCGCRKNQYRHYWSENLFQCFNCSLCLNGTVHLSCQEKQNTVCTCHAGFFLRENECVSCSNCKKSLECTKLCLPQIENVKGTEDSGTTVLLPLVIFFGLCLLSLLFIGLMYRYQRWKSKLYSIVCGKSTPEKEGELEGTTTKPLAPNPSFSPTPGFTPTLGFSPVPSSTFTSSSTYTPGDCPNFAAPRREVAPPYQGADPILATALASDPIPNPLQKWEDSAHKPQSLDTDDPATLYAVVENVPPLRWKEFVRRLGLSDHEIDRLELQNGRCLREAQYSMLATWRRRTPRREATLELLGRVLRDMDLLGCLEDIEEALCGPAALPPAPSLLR
# T2: TNFR60:Fc (human, UniProt P19438 30-211, limits assumed)
# T2 construct: Previously described construct (Crowe 1994); also called TNFR:Fc; TNFR1-Fc; not shown: Fc region of human IgG1
# T2 sequence (looked up): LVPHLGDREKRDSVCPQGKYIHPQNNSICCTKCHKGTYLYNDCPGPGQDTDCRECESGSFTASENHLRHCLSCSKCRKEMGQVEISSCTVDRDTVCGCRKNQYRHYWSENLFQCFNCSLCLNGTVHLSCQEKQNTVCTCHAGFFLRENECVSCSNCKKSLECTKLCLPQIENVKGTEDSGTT
# T3: LTα1β2 complex from II-23.D7 cells (human, UniProt P01374 35-205; Q06643 1-244)
# T3 construct: also called LTβ (33 kDa) and LTα (23-25 kDa) complex
# T3 sequence (looked up) 1: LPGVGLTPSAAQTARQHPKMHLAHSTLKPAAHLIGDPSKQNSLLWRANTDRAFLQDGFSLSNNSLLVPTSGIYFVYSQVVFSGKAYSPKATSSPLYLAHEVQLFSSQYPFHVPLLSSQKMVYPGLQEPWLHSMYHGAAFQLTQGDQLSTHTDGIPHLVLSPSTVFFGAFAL
# T3 sequence (looked up) 2: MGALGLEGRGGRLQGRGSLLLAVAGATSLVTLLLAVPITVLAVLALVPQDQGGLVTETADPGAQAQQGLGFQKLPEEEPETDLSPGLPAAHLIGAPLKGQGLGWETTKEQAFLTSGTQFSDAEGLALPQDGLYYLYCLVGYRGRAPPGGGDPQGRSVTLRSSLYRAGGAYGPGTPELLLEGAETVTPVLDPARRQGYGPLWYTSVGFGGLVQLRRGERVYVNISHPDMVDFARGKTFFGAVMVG
# B1: LTα homotrimer (ligand, UniProt P01374 35-205, looked up)
# chain: T3 sequence (looked up) 1
# B2: p30 (LIGHT), the cell surface HVEM ligand of activated II-23.D7 cells and human T cells (ligand)
# chain: MEESVVRPSVFVVDGQTDIPFTRLGRSHRRQSCSVARVGLGLLLLLMGAGLAWQGWFLLQLHWRLGEMVTRLPDGPAGSWEQLIQERRSHEVNPAAHLTGANSSLTGSGGPLLWETQLGLAFLRGLSYHDGALVVTKAGYYYIYSKVQLGGVGCPLGLASTITHGLYKRTPRYPEELELLVSQQSPCGRATSSSRVWWDSSFLGGVVHLEAGEEVVVRVLDERLVRLRDGTRSYFGAFMV
# notes: see m1; also called 30 kDa protein; cell surface ligand for HVEM
# B3: human HVEM:Fc (Fc of human IgG1) (Fc fusion, UniProt Q92956 39-184, looked up)
# chain: LPSCKEDEYPVGSECCPKCSPGYRVKEACGELTGTVCEPCPPGTYIAHLNGLSKCLQCQMCDPAMGLRASRNCSRTENAVCGCSPGHFCIVQDGDHCAACRAYATSSPGQRVQKGGTESQDTLCQNCPPGTFSPNGTLEECQHQTK
# notes: range 1-184; Bivalent chimeric protein made with baculovirus vector pVL1392; also called huHVEM:Fc; hu HVEM:Fc; not shown: Fc region of human IgG1
# B4: murine LTβR:Fc (Fc fusion, mouse, UniProt P50284 31-221, looked up)
# chain: QLVPPYRIENQTCWDQDKEYYEPMHDVCCSRCPPGEFVFAVCSRSQDTVCKTCPHNSYNEHWNHLSTCQLCRPCDIVLGFEEVAPCTSDRKAECRCQPGMSCVYLDNECVHCEEERLVLCQPGTEAEVTDEIMDTDVNCVPCKPGHFQNTSSPRARCQPHTRCEIQGLVEAAPGTSYSDTICKNPPEPGAM
# notes: range 1-221; Encoded range includes the signal peptide; also called muLTβR:Fc; mouse LTβR:Fc; not shown: Fc region; human IgG1 by the opening sentence of the paragraph, not restated for this construct
# B5: LIGHTt66-FLAG (ligand, not shown: small tags and cut ends)
# chain: EMVTRLPDGPAGSWEQLIQERRSHEVNPAAHLTGANSSLTGSGGPLLWETQLGLAFLRGLSYHDGALVVTKAGYYYIYSKVQLGGVGCPLGLASTITHGLYKRTPRYPEELELLVSQQSPCGRATSSSRVWWDSSFLGGVVHLEAGEEVVVRVLDERLVRLRDGTRSYFGAFMV
# notes: also called soluble homotrimeric LIGHT; recombinant soluble LIGHT
# B6: LIGHT t66 G119E (ligand, not shown: small tags and cut ends)
# chain: B5 chain with G53E
# notes: FLAG-tagged point mutant from transiently transfected 293T cells, homotrimer; also called LIGHTG119E; LIGHT-G119E
# B7: LIGHT t66 Q117T (ligand, not shown: small tags and cut ends)
# chain: B5 chain with Q51T
# notes: FLAG-tagged point mutant from transiently transfected 293T cells, homotrimer; also called Q11TT
# B8: LIGHT t66 Y173F (ligand, not shown: small tags and cut ends)
# chain: B5 chain with Y107F
# notes: FLAG-tagged point mutant from transiently transfected 293T cells, homotrimer
# B9: LIGHT t66 L120Q (ligand, not shown: small tags and cut ends)
# chain: B5 chain with L54Q
# notes: FLAG-tagged point mutant from transiently transfected 293T cells, homotrimer; also called L12OQ
# Experiments:
# [1] = biological target: T1, TNFR1 on normal human dermal fibroblasts; assay: cell-based or functional assay
# TNFR60:Fc = biological target: T2, TNFR60:Fc; assay: precipitation from detergent extracts of activated II-23.D7 cells, SDS-PAGE and 2D electrophoresis
# Protocol: (§1) The culture supernatants were harvested and the cells lysed in buffer containing 2% NP40, HEPES pH7.0, 20 mM EDTA, 150 mM NaCl with leupeptin and aprotinin (at 10 μg/ml), PMSF (1 mM) and iodoacetamide (20 mM). The extract was precleared with human IgG (10 μg), where indicated, anti-LT antibodies and protein G beads. The receptor:Fc fusion proteins (10 μg/ml) were then added to the samples and precipitated with protein G beads. Labeled proteins were analyzed by reducing SDS-PAGE and phosphoimage (pixel range 6-200).
# II-23.D7 cells were activated with PMA (100 ng/ml) or PMA and ionomycin (1 μg/ml) for 2.5 hours, followed by labeling with ³⁵S-methionine and -cysteine as in the above two paragraphs. Cell extracts were pre-cleared with human IgG (5 μg) and protein G beads to remove nonspecifically binding proteins. […] In each case, the beads were washed three times to remove the contaminating proteins in the non-bound fraction.
# [2] = biological target: B2; assay: flow cytometry, graded HVEM:Fc on activated II-23.D7 cells
# Protocol: II-23.D7 cells were activated for 4 hours at 37° C. with phorbol myristate acetate (PMA) (100 ng/ml), or PMA (100 ng/ml) and ionomycin (1 μg/ml). […] Stained cells were analyzed by flow cytometry (FACSCaliber, Becton-Dickenson). Receptor binding was determined by calculating the fluorescence intensity=(mean fluorescent channel) (% positive fluorescent events), where a positive event has a fluorescence value >98% of the value for normal IgG. Specific fluorescence intensity represents the fluorescence intensity after subtraction of the value for control IgG. Each histogram represents 10₄ events.
# LTα homotrimer = biological target: B1; assay: precipitation of 35S-labelled proteins with receptor:Fc and protein G, SDS-PAGE
# TNF = TNF (UniProt P01375 77-233); assay: precipitation of 35S-labelled secreted proteins of activated II-23.D7 cells with receptor:Fc 10 µg/ml and protein G, SDS-PAGE
# Protocol: as §1
# [3] = biological target: T3, LTα1β2 complex from II-23.D7 cells; assay: 2D electrophoresis of proteins bound to murine LTβR:Fc, FIG. 4A
# human LTβR:Fc [4] = biological target: T4, human LTβR:Fc (human, UniProt P36941 31-227, limits assumed); assay: SPR (BIAcore 1000), receptor:Fc amine-coupled to CM5 chip, LIGHT as analyte 100-500 nM, 25 C
# T4 construct: Bivalent chimeric protein, previously described; also called huLTβR:Fc; hu LTβR:Fc; not shown: Fc region of human IgG1
# [5] = biological target: B3; assay: as above
# Protocol: (§2) The sensor surface was equilibrated with PBS (20 mM sodium phosphate/150 mM NaCl, pH 7.4) and sensorgrams were collected at 25° C. and a flow rate of 5 μl/min. […] The sensor surface was regenerated after each cycle with a 10 μl pulse of 10 mM glycine pH 2.0. Sets of 5 analyte concentrations, 100 to 500 nM were collected, and analyzed by nonlinear regression using the BIlAevaluation software (2.1)™. Association and dissociation data were fitted on the basis of the simple AB⇄A+B model.
# LTβR (whole, in cells) = LTβR (whole, in cells) (human, UniProt P36941 31-435); assay: cell-based or functional assay
# murine LTβR:Fc = biological target: B4; assay: ELISA, plate-bound receptor:Fc, M2 anti-FLAG detection
# Protocol: (§3) After washing with PBS/0.5% Tween, samples were applied diluted in PBS/3% BSA and incubated for 1 h at RT. After washing wells were incubated with monoclonal anti-FLAG (M2) (10 μg/ml in PBS/BSA) for 1 h at RT, washed and incubated with goat anti-mouse HRP (1:5000) for 1 hr at RT. […] The OD was measured at 415 nm in a SpectraMax plate reader (Molecular Devices Corp., Sunnyvale, Calif.).
# murine HVEM:Fc = biological target: T5, murine HVEM:Fc (mouse; human, UniProt Q80WM9 39-205; P01857 99-330 = IgG part); assay: as above
# T5 construct: range 1-205;domain: Fc region; Produced in TN5 insect cells, protein A purified, 58 kDa reduced; Encoded range includes the signal peptide; also called muHVEM:Fc; mouse HVEM:Fc
# Protocol: as §3
# [6] = biological target: B3; assay: SPR
# Protocol: as §2
# human LTβR:Fc [7] = biological target: T4, human LTβR:Fc; assay: SPR (BIAcore 1000), receptor:Fc amine-coupled to CM5 chip, LIGHT mutant as analyte
# Protocol: as §2
# [8] = biological target: B3; assay: ELISA, plate-bound receptor:Fc, M2 anti-FLAG detection
# Protocol: as §3
# T4 sequence (P36941 31-227 limits assumed): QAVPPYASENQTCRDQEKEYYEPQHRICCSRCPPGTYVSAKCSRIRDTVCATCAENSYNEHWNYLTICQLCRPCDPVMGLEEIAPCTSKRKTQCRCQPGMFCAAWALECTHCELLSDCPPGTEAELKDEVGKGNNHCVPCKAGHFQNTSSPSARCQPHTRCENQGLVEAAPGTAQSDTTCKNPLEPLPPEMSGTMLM
# T5 sequence (Q80WM9 other isoform, or with tags, fused parts or gaps): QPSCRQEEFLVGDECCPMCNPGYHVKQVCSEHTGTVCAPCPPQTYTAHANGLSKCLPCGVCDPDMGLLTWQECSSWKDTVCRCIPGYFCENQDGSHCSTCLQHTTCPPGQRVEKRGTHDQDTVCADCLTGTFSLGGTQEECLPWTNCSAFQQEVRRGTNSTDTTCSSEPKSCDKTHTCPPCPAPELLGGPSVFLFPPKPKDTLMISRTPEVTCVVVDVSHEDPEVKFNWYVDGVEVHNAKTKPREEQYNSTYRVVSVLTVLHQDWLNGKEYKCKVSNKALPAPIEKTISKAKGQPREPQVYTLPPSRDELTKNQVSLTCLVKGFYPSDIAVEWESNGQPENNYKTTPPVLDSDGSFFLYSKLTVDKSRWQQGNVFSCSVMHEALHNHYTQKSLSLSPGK
# Sequence of TNF (P01375 77-233 limits assumed): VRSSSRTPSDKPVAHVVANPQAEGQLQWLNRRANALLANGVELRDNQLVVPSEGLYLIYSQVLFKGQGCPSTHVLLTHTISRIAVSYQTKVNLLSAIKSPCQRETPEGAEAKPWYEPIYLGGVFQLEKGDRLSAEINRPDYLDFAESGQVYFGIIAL
Binder,Kd (human LTβR:Fc [4]),koff (human LTβR:Fc [4]),kon (human LTβR:Fc [4]),Kd [5],koff [5],kon [5],binding result (murine LTβR:Fc),also measured
B1,,,,,,,,IC50 for inhibition of HCMV pp28 expression (western blot) [1]: ~0.01 nM; anti-viral activity against LTα1β2 and LIGHT (pp28 expression) [1]: ≥ 40 fold
B2,,,,,,,,binding result (TNFR60:Fc): no binding
B3,,,,,,,,EC50 [2]: ~20 nM; binding result (LTα homotrimer): binds; binding result (TNF): no binding
B4,,,,,,,,binding result [3]: binds
B5,4.5 nM,0.00012 s⁻¹,27000 M⁻¹ s⁻¹,3.9 nM,4.8e-05 s⁻¹,12000 M⁻¹ s⁻¹,,"IC50 for inhibition of HCMV pp28 expression (western blot) (LTβR (whole, in cells)): ~0.4 nM; up-regulation of ICAM expression by NHDF cells (flow cytometry, 36 h, 5 nM) (LTβR (whole, in cells)): 4 fold; fold lower affinity than for the human receptor (murine LTβR:Fc): 10 fold; fold lower affinity than for the human receptor (murine HVEM:Fc): 10 fold"
B6,,,,114 nM,0.002 s⁻¹,18000 M⁻¹ s⁻¹,no binding,"fold lower affinity than LIGHT t66 [6]: ~30 fold; binding result (human LTβR:Fc [7]): no binding (tested: 100 to 500 nM); up-regulation of ICAM expression by NHDF cells (flow cytometry, 36 h, 20 nM) (LTβR (whole, in cells)): < 1.5 fold; binding result (murine HVEM:Fc): no binding"
B7,1.5 nM,4.5e-05 s⁻¹,32000 M⁻¹ s⁻¹,0.3 nM,5e-06 s⁻¹,20000 M⁻¹ s⁻¹,,
B8,31 nM,0.0011 s⁻¹,37000 M⁻¹ s⁻¹,173 nM,0.0033 s⁻¹,19000 M⁻¹ s⁻¹,no binding,"Kd [6]: 180 nM; fold lower affinity than LIGHT t66 [6]: > 40 fold; up-regulation of ICAM expression by NHDF cells (flow cytometry, 36 h, 20 nM) (LTβR (whole, in cells)): 2.5 fold; binding result (murine HVEM:Fc): no binding"
B9,,,,,,,binds,binding result [8]: binds
